From doi:10.1101/2020.10.30.361790
Square brackets hold non-standard residues; d marks the D form. Ends that are not written are not given here. * marks the point of attachment. Biotin = O=C1N[C@H]2[C@H](CS[C@H]2CCCCC(=O)*)N1; pY = N[C@@H](Cc1ccc(OP(=O)(O)O)cc1)C(=O)O; Ahx = NCCCCCC(=O)O

What was measured:
[1] = biological target: biotin-ahx-ahx-EPQpYEEIPIYL; experiment: BLI
[2] = biological target: fluorescein-ahx-ahx-GGpYGG; experiment: fluorescence polarisation
[3] = biological target: fluorescein-ahx-ahx-EPQpYEEIPIYL; experiment: fluorescence polarisation
[4] = biological target: Fyn SH2 variant V17 (T4N/A5S/K8L), His-tag protein (human); experiment: ELISA
[5] = biological target: Fyn SH2 variant V10 (T4V/K8L), His-tag protein (human); experiment: ELISA
[6] = biological target: 9 of the 22 variants that have the K8L mutation (His-tag proteins); experiment: ELISA
[7] = biological target: Fyn SH2 variant V13 (T3S/T4R/S6A/K8L), His-tag protein (human); experiment: ELISA
[8] = biological target: Fyn SH2 variant V3 (T3S/T4W/A5G), His-tag protein (human); experiment: ELISA
[9] = biological target: Fyn SH2 variant V24 (T3S/T4S/S6A/K8L), His-tag protein (human); experiment: ELISA
[10] = biological target: Fyn SH2 triple mutant superbinder (T4V/S6A/K8L), His-tag protein (human); experiment: ELISA

Molecule: Fyn SH2 triple mutant superbinder (T4V/S6A/K8L), His-tag protein (designed binder)
- Kd [1]: 55 nM
- koff [1]: 0.000888 s⁻¹
- kon [1]: 16300 M⁻¹ s⁻¹
- Kd [2]: 680 nM
- Kd [3]: 20 nM

Molecule: Fyn SH2 variant V3 (T3S/T4W/A5G), His-tag protein (designed binder)
- Kd [1]: 55 nM
- koff [1]: 0.000463 s⁻¹
- Kd [2]: 1630 nM
- Kd [3]: 38 nM

Molecule: Fyn SH2 variant V10 (T4V/K8L), His-tag protein (designed binder)
- Kd [2]: 2700 nM
- Kd [3]: 32 nM

Molecule: Fyn SH2 variant V13 (T3S/T4R/S6A/K8L), His-tag protein (designed binder)
- Kd [2]: 620 nM
- Kd [3]: 12 nM

Molecule: Fyn SH2 variant V17 (T4N/A5S/K8L), His-tag protein (designed binder)
- Kd [3]: < 40 nM
- fold affinity increase over the wild type Fyn SH2 domain [3]: 4 fold
- fold weaker than the triple mutant [3]: 4 fold

Molecule: Fyn SH2 variant V24 (T3S/T4S/S6A/K8L), His-tag protein (designed binder)
- Kd [2]: 2570 nM
- Kd [3]: 23 nM

Molecule: wild type human Fyn SH2 domain (Cys-less), His-tag protein (from UniProt P06241 149-246) (domain or fragment)
- Kd [1]: 154 nM
- koff [1]: 0.01 s⁻¹
- kon [1]: 64800 M⁻¹ s⁻¹
- Kd [3]: 327 nM

Molecule: {Biotin-Ahx-Ahx}-EPQ[pY]EEIPIYL [biotin-ahx-ahx-EPQpYEEIPIYL]
- EC50 [4]: < 200 nM
- EC50 [5]: 175 nM
- EC50 [6]: 21 to 500 nM
- EC50 [7]: < 200 nM
- EC50 [8]: 15 nM
- EC50 [9]: < 200 nM
- EC50 [10]: 21 nM
